Measured values published in publication PMC10244618.
Several values for one entry are separate records, joined by “and”; a condition that tells them apart may be missing. Identical values can stand only once.

B1: NF2 (merlin) isoform 7, human, full length (507 aa, lacks exons 2-3 = isoform-1 residues 39-121; exon-16 C-terminus), P35240-4 (parent)
chain: MAGAIASRMSFSSLKRKQPKTFTVRIVTMDAEMEFNCEVKKQILDEKIYCPPEASVLLASYAVQAKYGDYDPSVHKRGFLAQEELLPKRVINLYQMTPEMWEERITAWYAEHRGRARDEAEMEYLKIAQDLEMYGVNYFAIRNKKGTELLLGVDALGLHIYDPENRLTPKISFPWNEIRNISYSDKEFTIKPLDKKIDVFKFNSSKLRVNKLILQLCIGNHDLFMRRRKADSLEVQQMKAQAREEKARKQMERQRLAREKQMREEAERTRDELERRLLQMKEEATMANEALMRSEETADLLAEKAQITEEEAKLLAQKAAEAEQEMQRIKATAIRTEEEKRLMEQKVLEAEVLALKMAEESERRAKEADQLKQDLQEAREAERRAKQKLLEIATKPTYPPMNPIPAPLPPDIPSFNLIGDSLSFDFKDTDMKRLSMEIEKEKVEYMEKSKHLQEQLNELKTEIEALKLKERETALDILHNENSDRGGSSKHNTIKKPQAQGRRPICI

Variants of: B1
Test: reverse yeast two-hybrid deep mutational scan (rY2H-seq): NF2 isoform 7 mutant library as bait mated with wild-type prey strains; selection on medium lacking adenine for non-interacting pairs; NextSeq paired-end sequencing; enrichment vs …
Conditions: with KDM1A (lysine-specific histone demethylase 1A; the table's label AOF2 is a gene synonym of KDM1A), O60341; yeast diploids after mating (RBait_S3 x RPrey_S3), 30 °C, selection for reporter genes on NB agar; human ABL2 co-expressed as the kinase-dead K35M mutant …; HIGHER = WEAKER BINDING (the opposite of display enrichments): higher = stronger loss of interaction: reverse Y2H selects yeast in which bait and prey do NOT interact (growth without adenine), so a …; hits-only table; scale: rY2H score; numbering: uniprot, sequence starts at 1

Variant	enrichment
R25E	3.64 and 8.74
K191Y	1.65
E282K	1.54
D71K	5.71
R228G	8.73
D271K	5.07
D271L	4.25
V56K	8.67
A290V	1.65
R248C	1.52
A312L	3.21
S12L	5.88
A247E	7.37
I160C	1.87
T168P	1.77
T168D	2.37
K15L	1.66
K15E	3.69
R227E	14.7
M122A	3.3
W175C	2.59
L300P	4.3
H112A	2.37
G78K	1.76
L315S	4.11
L315P	2.33
P192S	1.69
Y67A	3.02

Variant	enrichment
E187K	1.65
H159P	1.84
H159E	3.49
H75S	2.92
M262I	1.81
A319L	4.6
E311L	2.66
E295K	1.91
K313L	2.56
E309L	1.9
A59S	4.04
E34A	1.5
L167E	2.5
L167A	1.67
Q64L	2.29
I171D	5.35
E123L	1.42
R328P	1.53
L158I	2.37
R166G	1.77
R166E	1.81
M238I	2.35
Q250L	2.08
Q250D	1.46
F173V	2.3
F173S	3.95
A302T	1.57

The next lines start with the values.

enrichment	Variant
1.9	A393L
2.98	T336L
2.32	L353A
1.66 and 2.35	E351K
2.21	E362L
1.58	E344V
1.6	E337L
1.89	R363G
7.23	M357D
7.88 and 2.96	D374T
4.85	K460L
2.39	D476E
2.07	L422A
9.11	S423E
7.18	A358L
2.1	A365L
1.71	A378T
2.45	L417E
3.17	S414L

enrichment	Variant
1.73	S414E
2	P504R
2.42	D411C
3.5	A354L
5	S361A
2	S361P
19.6	Q500L
1.88	L408K
2.3	N482T
2.71	N482L
1.69	N492E
1.87	A406Q
2.31	N457T
3.38	N457S
2.15	D369K
1.52	G486D
1.65	Q498L
1.58	P410R
3.64	E472A

enrichment	Variant
3.09	L348K
3.78	I392E
2.26 and 2.39	A385E
2.79	Q345K
2.89	R384E
1.73	L434R
1.49	C506S
2	R379C
3.88	K356L
2.05	P407T
3.56	R364K
3.21	V352S
1.45	L389S
2.15	L389K
3.18	R471A
1.45 and 2.01	Q370A
1.59	G501C
6.05	P405S

Same assay, conditions: with EMILIN1 (elastin microfibril interfacer 1), Q9Y6C2; yeast diploids after mating (RBait_S3 x RPrey_S3), 30 °C, selection for reporter genes on NB agar; human tyrosine kinase ABL2 co-expressed as the active kinase …; HIGHER = WEAKER BINDING (the opposite of display enrichments): higher = stronger loss of interaction: reverse Y2H selects yeast in which bait and prey do NOT interact (growth without adenine), so a …; hits-only table; scale: rY2H score; numbering: uniprot, sequence starts at 1

Variant	enrichment
T189I	1.59
D271L	2.2
K170L	4.44
L150A	2.56
V56K	3.86
G157E	5.67 and 3.65
R335C	2.88
S60F	3.78
Q261Y	2.07
R270K	5.67
E259K	3.41
L315W	7.24
V209A	5.24
A319L	2.38 and 3.16
T106L	4.33
V39G	1.41
P174R	4.14
K229L	1.52
F79A	4.71
E323G	1.92
L151E	15.6
V74S	6.93
R258V	2.52
S73L	1.58 and 3.38
F173S	1.69
T332S	2.08

Second part, the variant after the results:

enrichment	Variant
4.16	T336K
2.76	N416T
5.25	T429K
2.16	K386Q
5.83	A350E
4.49	L375A
10.3 and 7.31	E444A
1.78	L422A
1.85	E464L
2.24	A378T
1.52	P399K
2.33	P399R
4.03	E377A
1.59	I404K
7.56	S489E
5.72	K469A
1.87	A381L
2.56	A406Q
2.69 and 1.81	D369K
2.78	L348K
4.09	P407R
2.07	R364K
2.12	L389E
2	E391L

Same assay, conditions: with KDM1A (lysine-specific histone demethylase 1A; the table's label AOF2 is a gene synonym of KDM1A), O60341; yeast diploids after mating (RBait_S3 x RPrey_S3), 30 °C, selection for reporter genes on NB agar; human tyrosine kinase ABL2 co-expressed as the active kinase …; HIGHER = WEAKER BINDING (the opposite of display enrichments): higher = stronger loss of interaction: reverse Y2H selects yeast in which bait and prey do NOT interact (growth without adenine), so a …; hits-only table; scale: rY2H score; numbering: uniprot, sequence starts at 1

Variant	enrichment
I329A	1.81
A316E	2.69
E38K	1.85
I105C	1.42
E121A	1.59
L57A	3.5
V56L	1.8
D299E	1.51
R335S	1.9
R335C	1.78 and 2.82
R335L	3.71
D162Y	2.15
I160K	3.84 and 4.07
H221Y	2.24
Q82D	1.58
E321L	3.26
R89K	1.9
Q306H	1.79
A65V	1.9
T308I	2.84
G78K	5.27

Variant	enrichment
M286A	1.89
H159A	1.39
H159P	3.93 and 3.02
H159E	1.44
E148A	1.62 and 1.74
H75S	3.22
M262D	5.37
E311L	5.65
E311K	1.67 and 1.4
N137R	2.21
I127E	11.8
A140G	1.91
E309L	1.51
E309K	1.97
P163E	4.05
M225K	43
A59V	1.61
R253Q	1.48
K126E	22.9
E245Y	1.47
Q64P	6.87

Variant	enrichment
Q64K	2.38
N143M	2.18
F200S	3.89
L301A	2
M133E	21.9
S55F	3.58
R328L	2.21
M96V	1.61
M96I	1.63
R166G	1.84
D198G	2.28
Q250D	1.65
R243K	1.55
K330L	2.59
A333E	2.04
A54V	3.45
K304A	3.58
K304P	1.4
A155C	1.93
D130A	1.54

The remaining lines, values ahead:

enrichment	Variant
2.26 and 6.75	T336K
2.43	Y398K
11.2	T429K
2.41	E349P
8.79	R341A
1.9	R363L
3.07	L375A
1.5	E444K
1.62	M401E
1.99 and 1.77	M401K
6.45	I412H
1.73	N402E
6.77	A358L
2	A365K
3.12	L417E
1.99	M446I
1.85	P504R
7.96	I404D
2.43	S489L
2.4 and 1.53	D411A
4.86	G419E
3	K469A

enrichment	Variant
3.78	A354L
2.29 and 3.4	S361A
1.42	Q500K
1.4	T394A
2.61	S421K
2	L390E
2.59 and 2.4	A385E
1.87	D428N
1.61	Q345K
4.78	T397I
1.37	L434R
2.04	R379C
1.47	P396S
2	K356A
1.91	K356E
1.77 and 2.01	P407L
2.33	P407A
1.5	I418A
4.28 and 3.15	R364A
1.79	L355P
1.87	L389E
2.32	E391R

Same assay, conditions: with PIK3R3 (phosphatidylinositol 3-kinase regulatory subunit gamma), Q92569; yeast diploids after mating (RBait_S3 x RPrey_S3), 30 °C, selection for reporter genes on NB agar; human tyrosine kinase ABL2 co-expressed as the active kinase …; HIGHER = WEAKER BINDING (the opposite of display enrichments): higher = stronger loss of interaction: reverse Y2H selects yeast in which bait and prey do NOT interact (growth without adenine), so a …; hits-only table; scale: rY2H score; numbering: uniprot, sequence starts at 1

Variant	enrichment
I329A	1.64
A316E	2.22 and 3.1
R228G	15.3
V56K	3.28
V56L	1.92
A290V	2.94
G157E	5.03 and 2.8
A312K	2
I160C	1.68
R227E	36.3
E321L	3.49
R270K	4.09
H159E	6.11
M262D	15.7
N137R	2.63
T297L	1.67
E309K	3.02
A59V	2.52
R253Q	1.57
Q64L	6.71
I171D	3.5 and 7.01
L158I	1.48 and 2.46
R258V	1.6
R166G	1.44
R166E	1.52
M238I	2.66
S73L	5.98
F173S	4.73 and 5.14
A155C	1.8 and 1.98
A302T	3.87

The next lines start with the values.

enrichment	Variant
2.98	T336K
10.6	K460L
2.14	M401E
2.17	M401K
1.42	N402E
4.62	A358L
2.58	A365K
2.19	L417E
3.79	S414L
3.03	S361P
2.14	T394A
4.98	D369K
4.1	A385E
7.08	K356L
2.62	P407T
2.87	R364A
2.43	L389K
1.45	G501C

Same assay, conditions: with NF2 C-terminal domain (wild type; homomeric NF2-NF2 interaction), P35240; yeast diploids after mating (RBait_S3 x RPrey_S3), 30 °C, selection for reporter genes on NB agar; human ABL2 co-expressed as the kinase-dead K35M mutant …; HIGHER = WEAKER BINDING (the opposite of display enrichments): higher = stronger loss of interaction: reverse Y2H selects yeast in which bait and prey do NOT interact (growth without adenine), so a …; hits-only table; partner unresolved; scale: rY2H score; numbering: uniprot, sequence starts at 1

Variant	enrichment
K191Y	1.46
L291E	2.16
E132K	5.61
I105C	1.42 and 1.58
L156K	2.02
A312K	2.34
A247E	6.62
I160K	1.71 and 3.21
I160A	1.61
M122A	2.37
K260A	2.49
E321A	1.62
D118K	4.21
V27L	2.04
L315R	1.62
H159A	2.04
H75S	2.58
M262D	6.41
E295K	2.66
N137Q	1.42
T297L	3.13
K313L	2.4
A140G	1.75
E309K	1.83
P163E	2.31

Variant	enrichment
P174R	4.82
E310L	1.51
A298E	2.55 and 1.66
L167E	4.14 and 3.2
L167K	1.57
E245A	1.58
E245K	3.75
Q64M	5.81
Y61K	1.84
Y61A	6.2
N143M	1.65 and 1.37
L301A	1.81
M133E	2.45
L158G	1.55
R293K	7.18
R258V	1.38
Y70H	1.43
M238A	4.02
S73L	3.01
S73P	2.96
R113G	1.5
E83K	18.2
N288A	1.84
A266L	3.08
F139E	20.1

The next lines start with the values.

enrichment	Variant
3.64	T336D
3.06	L353K
2.95 and 2.99	E351K
2.55	R363L
2.94	M357D
1.97 and 1.82	M357A
2.51	H491L
1.7	A499G
1.98	D374A
3.23	D374T
3.8	A358K
2.32	A365L
3.98	P399S
1.53	P413K
3.15	D411L
2.32 and 4.81	K469A

enrichment	Variant
2.43	N482T
1.65	T394K
3.98	T394R
1.44	K496S
10	A406L
2.32	N457E
2.24	S421K
2.61	D369K
4.06	L475K
2.28	L390A
2.06	A385E
1.92	Q373K
1.58	L434R
1.55	L466C
2.52	R364K
4.56 and 2.51	L389K
